Laboratory results taken from the DeepSol protein solubility set.

Assay: soluble on expression in E. coli; label from the status in PepcDB or PDB records

Question: Which “soluble on expression in E. coli” value does the source give for “MAHHHHHHMKLPYAKLEKHSRPVRCVHAEYGCTMLFCSVRCRQAGWSRFHFAGCPGAMMSDQRDAYDEFIHHDWEYRGVDYSDTVFLAFRFVCMAVTNIRLHRQSLELAYRPIAQLIKAPLSFFHFTYLFYREEADSTEKKGRGEKQIEKLRLIRWEAFRKFRATHMSTTENDTTDDFLATGMTLLGRILRFTQEECTLFTVARWSELLGAVLLNGQERSPPSNYDRLKELVRRLPCGESTMDAFEQEVQMAGNELQHLRQSSRGQGVYTVGCLFNHSCEPNLQVVYSESGDETLSVVALRDIEPGEELCISYIDESLSYPERQQELYEHYLFFCQCPKCEREAAAWEPIEPCEEVLSSAYTFSQLY” here?
Answer: not soluble

Question: With “MAHHHHHHMKNFFILHLRNNYSIFLNKPLQVFTLNVKLNSHVKVNYKHELLTYEFRKITYVKKKKKKSYHNCDGRYITTLNKTININEKYSKLKNDGLLNSTPDNHIKDNIIKEDLLYRKNNEKENEEVIKSNIDENKNVHMNDQNEQNKHCYNKLLIESCCHIDKDVKKSLLEIFQYKEFTDVQRIVYDNIIKEKKQNDLLIQAKTGTGKTIAYLLLSINDIIKNKILSVHTLIIVPTRELANQIYNECKLLLTYKHNINVLTLTGGIKRRDDQLNIRRIKPDIIICTVGRLLDHFESTYLFNTLFENLKMLIIDEADQLLSTGYENDIHRLLTYLPSNRRNILLSATLGYNLDEIRKKMCKSDYIYLNCVKDISKHTSDQLIQYVLFHKAIDTTIILYNLLIEHMRLNQFTYKIIVFFPTARATSFYAQFFINQLKISVYEIHRKKEMAHRQITANRFSMESVGILFTSDISSRGLNYPDITLIIQVNTPISREQYIHRVGRTARSNKKGMAIILLNEADELFYQEIKDLNIQKLNAQNYTLKNTNLSNYLSTWMSNTQLLYLAYAYYSSILRFYKTKYTHLKINDDEIIDAVNNMLLSTGLVEQPYISRNLATTLNMQNNVKLKIRKDLDDILLL” as the sequence, how does the “soluble on expression in E. coli” value read?
Answer: not soluble

Question: Which “soluble on expression in E. coli” value does the source give for “MAHHHHHHMKNKNKYDYLLKLLLVGDSSVGKSSILCRYSDNQFEEKVLSTIGIDFKVKYLKIDNKTIKVGIWDTAGQERFRTLTSAYYRNAHAIILVYDCTVRESFENLDVWINEIDKYSTNKNAIKMLVANKIDKPNHEVTKDEGKNFAFENNMLFCETSAKNDINITYCFEELIQQILNNPSLLELSIVTKNLKLGKKEESRSNCAC” here?
Answer: soluble

Question: With “MAHHHHHHMKRAAKGEVVFDEDIRRLCDKGVNNLPGWSLAAAEVKAAVRNSTKHFLDAAAEEARNPTTTSAPEKLEGCYKSVHNARRGHAVELPDGVERTKTGTGMGMHEGRPEQSWSYKKADDAIEKNDGVQQFGAAPPVLMVLTLDKGWPYSWNRIQDLPKDVFVNCEVDRVWQTVKGDVTAWFSPHGGTDFTPKQRVLIGTPGIGKSMAAGSYLLYQLLHCDAKKLQVVVHRFGGGDAYVSDKITRAVTKYSDEDMCISELRRLRGYGRNVYIIYDVAKEGTPPPRHFAPTSGWGMIVVSFPKVTNYDEWEKQLHAARIIMNCPDESDVRAMCIWKEYNGQVEEEADYWKKVKDRMDKVGPILRFIFDN” as the sequence, how does the “soluble on expression in E. coli” value read?
Answer: not soluble

Question: For “MAHHHHHHMKRFFKSDGTPYNRDAANNLYGSEHTHRGGVEALSEGVAAGQYGEHKPRAIMFVNKRPVEIIPQEENLLEVLEREGIRVPKFCYHPILSVAGNCRMCLVQVDGTQNLVVSCATVALPGMSIITDSRLVRDAREGNVELILINHPNDCPICEQATNCDLQNVSMNYGTDIPRYKEDKRAVQDFYFDPQTRVVLNRCIHCTRCVRFLNEHAQDFNLGMIGRGGLSEISTFLDELEVKTDNNMPVSQLCPVGKIYLGDADENNLIAEQLDVSYESECGDRGTVTLGK”, which “soluble on expression in E. coli” value is on record?
Answer: not soluble

Question: For “MAHHHHHHMKSATMSATHALRDKWFVSFLPLLTADMVNTDYKGNWQLAAQERTQKLDWITSVEELWSTMNSLPKVHQLGMGSTLIFARNNKEPPSYEAYPNGSRIMINLLKPPTTDAGLELVLAVVMGETAAEKASDGKPVCDVLRIAARPSREHSEQIRVEVWLSDSTRSHAVAEFLAEAMRAKGLAANSYNIAEASFDAAAPGKDKKVLAASTMPSPSSPPMVKD”, which “soluble on expression in E. coli” value is on record?
Answer: soluble

Question: For “MAHHHHHHMKVENSKMEVKREQSYSNEDEEINEEDLNWWEQENLRIAMKGERRWETLAHNGVLFPPEYEPHGIPIFYDGREFKMTPEEEEVATMFAVMKEHDYYRMEVFRRNFFESWREILGKRQHPIRRLELCDFEPIYQWYLVQREKKLSRTKEEKKAIKEKQDAEAEPYRYCVWDGRREQVANFRVEPPGLFRGRGKHPLMGKLKVRVQPEDITINIGETAEVPVPPAGHKWAAVQHDHTVTWLAMWRDNVAGNMKYVMLAPSSSVKGQSDMVKFEKARKLKDKVDDIRASYMEAFKSNDLHVAQRAVAMYFIDRLALRVGNEKGEDEADTVGCCSLRVEHIQLMPDNIVRFDFLGKDSIRYQNDVAVLPEVYALLQRFTCRKSPGMDIFDQLNPTQLNDHLKSFMDGLSAKVFRTYNASITLDRWFKEKPVDPKWSTADKLAYFNKANTEVAILCNHQKSVSKNFKLQMMQLTTKSEYTRKTLELLEKAEVTAKKKSVEEAAKEFLEEQDRMQREWLESYGTEEQKKEFEEIVAKRAAPRVRSEKKSSSGTKKAKSASGKTRAATKKKSAKKSGKASSKKAARKSSKKAPKRSKEEDEDDVPLMSMAAKTKKTAGVKRQRAVKVASDDDDVPLAALRV”, which “soluble on expression in E. coli” value is on record?
Answer: not soluble

Question: With “MAHHHHHHMLESFEFDQERKEALNTVAELIASTIEGAESQDVHDVLSSSLHLPHNWQEIVQKRAEQRRKLSATFTLFCEETIATPSTDGNAALDISEAPATCFLPELRPKTMPPVTTSATRGFECPSCGNHWDVVDARKSLRNSNTSSAVRELSNADVGFCPVCEDI” as the sequence, how does the “soluble on expression in E. coli” value read?
Answer: not soluble

Question: With “MAHHHHHHMLHEVNVGTSDIVRGGHGGDEAATPQQPPALSVVEEHIQRIRLELCGQRHPPSGYASAIAIPSTAAGLDRVAVLVDLLDQVRYWAIEEAFTFKDEPSRLAETEAPEAVVACLCSQRPQLVAQALRVVQPMLRHRQTAYETRRVMVDVWAYREQVNSMVPLPEGLDPLLAMLAEFLEQHKGVLPVLVEALSTATAALVQDGTACVGSDNGNDDNLDGGVSLRRRVAPLVVALHETTLVYQMESAMRRHPDAVPLQVEGVSFCAALVDLPWPFEAEVDSEEGTPTSLADILAHSDGVLDVLHGALRRHRQNLCIARGVLHVWRVCAQHPANRVPLLQHGAYAGALQQLRGVLPYAVGVWREIAETVGYFIPLLDALQRRSLALTLRELLLRRPQLEMLELILALLLSLLMVV” as the sequence, how does the “soluble on expression in E. coli” value read?
Answer: not soluble

Question: For “MAHHHHHHMLIPVRCYSCGKVVGHLYELYQELLNQDHTEAEALNALRLSRMCCRRMILSHIDLADDLLPYSVPVVGSMPLINPVQGPVPRRQ”, which “soluble on expression in E. coli” value is on record?
Answer: not soluble

Question: For “MAHHHHHHMLLQFNWDRLDVTAAEAICALLNAKLEEELLLRRAANQSVNASGGQETASADAACGVESLRVTNIEWGNVPPFIEVVELDDAVEFASSTPLSFEAPLGQQDFGGTISSGTCGGGATTPFFLRPSPASSVTMMDGISETDSGIVGNHGGMPTPSVPPASGIRPGNGQSPINSSSAPVKDAFAAYFGPKGLYVCLHVTYGGPMRVSVASVLRHDVPLGPIAIPVRMPLQLHFSKMDMDFHLCINLHRNTCRVWMEPGKLFTSPLNRMNVMAVFGERRPSSQHMAEFPTSGQNAGDDLDTSDAWTHVGSSRIGSDDAEDMVFIDESIISQFVLKEVRAILQEKIIYPHSVVVPLSL”, which “soluble on expression in E. coli” value is on record?
Answer: not soluble

Question: Which “soluble on expression in E. coli” value does the source give for “MAHHHHHHMLLVGFKPCEIVFLVDTLLGSGVSRLPQLFSFFFGGGVHSCARQRKSRKGFAPPNWHPLPRPRRLTAFPYHSQVVAHKRVVRRLLTINNLVFNCCGNLFLPICTLHPKFPFTNDLSQYVVTCEFPPLQLHFSTQAPKNCFRKQLDLVLCSINVAVDVFHPALLRTFRWIC” here?
Answer: soluble

Question: With “MAHHHHHHMLNLSSLLISKKNVKDDGNNSSENEVGGNNDVSSLNNDCVKIKLINMQEYKTKKLLDERKNVNVWSANNKKDNDKKEKKKEKKNEQPKKKESVVTKPKAVGENDTKKIENKDIENKNVTPKKLFVPSAIKQQQQKEALKNKQTPKKEEELFPDLIQSKKSNKTEKEKKKTQPAKKSKKEKADKKVQESTKEQENEFPQIEEIEKIHFNIFDFIDMEKQTYEHIVRNSEKVLQKYKNRSKFVDSMIMCN” as the sequence, how does the “soluble on expression in E. coli” value read?
Answer: not soluble

Question: Which “soluble on expression in E. coli” value does the source give for “MAHHHHHHMLRDELPPEKGQQSFSLWSRILRSIDGCKLEIVLDDQTEADKIKVVDIYDKVSERFPLYSWKEPVKGRVVVTPTGSSYSHQGVVVELIGVASTFREVESRVVFLRQERQFEPDTLNQSTPFEFTFSAPKEHESYHGIYARVRYFVQATVKQRIKSPSVKEEVWVHRVDTALSESQTDASAHMNYFRETCFGPESIAMNVGVDNVLHIEFRYDKKIFHLAERVLGKVEYKVADMDIAYGEVGLVRKEFLAPGQTDETMESETLQKFEIMDGTPIVEEVVPIRLYLKSVPRLTPSYMDVENLFSVRYFLNLVLVNQEGKRYFKQQEIQLYRRTGQERSATSFNSGLPVTPASGDVDAKGGWSA” here?
Answer: not soluble

Question: With “MAHHHHHHMLRMKLVTYFEGFFFMATANDLPAAFRGSNCLQVQVNSKSGSKRVIRLVFIRHGQSVWNSLFNSFDATWPVRAVKAMVNEAVYFFTNPFDSVIVDSPLSEKGRSEAQELARFVRSAKGQVCFDASCSLIVCSNLRRAMETALVGMQPRIVSTGERIVVDSSLQEGSRNIDAQSLSTEPGKIVPCKMGELATPQLLGTAFDPHLNGGNRTAKRNVYDRMDEFVQHLFGGVKSNPYVPASGAESGNSALKEVIVVGHSGYFRCFFKRFLPSSSRHVAKTKKLKNCAVVSFDLVRNESTGEVYIEESTVSVLYKGF” as the sequence, how does the “soluble on expression in E. coli” value read?
Answer: not soluble

Question: For “MAHHHHHHMLRRTARRAMGNSRFSGSKERDRIEQERRRRLLYDAAGNLQLGGLLLMMYDDFKKPAAIGLGMVAFLYGYNRLVVRLSREEEAEGLQLDAKSEAVARQTGKLKADRYLVKPNRQIDDPDFLNIPAFGGRGVSSSKLLSDDSVSGGALHSERKRS”, which “soluble on expression in E. coli” value is on record?
Answer: not soluble

Question: With “MAHHHHHHMLSLCKSLSSDAPTRTKTRVVLSMFNASHVDELLASTTRTLQRSQVLLDERRSVIQSQQGLPPMFCVASSSAASTSVGSSAAAPYASASSSFADTVRSLQSLSELRSYVEATAEMMKRVREEGMEPSPAMQQRRARGQDFALLQSMTRGLRGAMTAAWQMSETTAALWAFSTEACGGAEEAAAAEDAASAAAGSTLCAVPGARSGGTRSSGAQLTSTLIFSAFCVDLAIAAPRAASAVAAELESVFEPSSDNGRPSSLVSEWMRDGNVKLSALLRDVAALLPPPVKTRLVARLADVLFRPSPALPRSPKESSGHPLGCELLSGGQLLLPSLDYYLLEQYPSSLASRWFLQPLQATAEHLRADYYASADQFHVQCRWLLRLVLTLLYACQSAALPTSTASRPPLERRLRTAQRLYDAWLIPLEKTFGNGTARHGMSVSFNRALVQPHGHMVERLLFTSSPASGVSGVSKVVQQSREWSGILYSAQYRLLLILEKLAHSEVAQVNGTSSTSAKQRTYETMLRQNGGKVSVSLLQTLAEDKQLLLDETPSRSPDGHRLYKLHDGLLDDSGKAVFVYLDDGALFTKVGRARAFQRVKSVEDIFKPLQ” as the sequence, how does the “soluble on expression in E. coli” value read?
Answer: not soluble

Question: For “MAHHHHHHMLYLKEIELGNYYICNLNDYPSEHCVVDYDPNKRIKFLCPIVHNEGEHMNTYNSSYCFTYEGIKDRLIIRNNEEPIYTTLPGIILENQILYDRYNLGIYIMPFKLEADMSIVCVCDTKKEYKGITPYIKINIKNSNNVLGVGSSDEYIKGCDFGNNKGKHQFLTSPQSHEHRSVCAILANPGDIVGINCINYNEDDPQNNDVTLEPSNCFSTVSFSLYTFSFVKMNINNILPDAKYYPETSAFPKDPNFKKFSTTSYLWIPANVPQAFFLVCSCKYAKGEGTAMYHVSSSTLEV”, which “soluble on expression in E. coli” value is on record?
Answer: not soluble
